From publication PMC6379965, “Expression and activity of the calcitonin receptor family in a sample of primary human high-grade gliomas” (BMC Cancer, 2019)
Where two headings read alike, the source gives them in different places. Each block holds one molecule with its values, some of them ahead of it. Ends that are not written are not given here.

Key:
CTR in SB2b cell line = target: T1, CTR in SB2b cell line (Homo sapiens, UniProt P30988); experiment: cAMP accumulation, CTR agonists, SB2b; format: cell-based; conditions: read-out: Emax, cAMP accumulation
T1 construct: only one of the studied cell lines expressed functional CTR; endogenous in cells; host or cells: SB2b patient-derived high-grade glioma cell line
T1 sequence (P30988 25-474): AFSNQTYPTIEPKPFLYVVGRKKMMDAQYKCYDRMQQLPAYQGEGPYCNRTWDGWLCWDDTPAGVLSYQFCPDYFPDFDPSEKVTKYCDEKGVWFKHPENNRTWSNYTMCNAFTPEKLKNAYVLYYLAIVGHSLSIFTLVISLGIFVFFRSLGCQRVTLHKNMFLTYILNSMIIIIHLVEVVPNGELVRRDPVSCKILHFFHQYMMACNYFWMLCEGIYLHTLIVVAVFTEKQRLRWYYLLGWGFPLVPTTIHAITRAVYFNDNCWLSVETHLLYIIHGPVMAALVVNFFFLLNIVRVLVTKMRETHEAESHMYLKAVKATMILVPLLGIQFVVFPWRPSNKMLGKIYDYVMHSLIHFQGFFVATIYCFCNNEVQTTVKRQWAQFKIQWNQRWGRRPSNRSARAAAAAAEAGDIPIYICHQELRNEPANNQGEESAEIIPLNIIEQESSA
Method: (§1) Primary patient high-grade glioma (HGG) cell lines, in vitro surrogates of glioblastoma, were developed by QIMR-Berghofer Medical Research Institute (Brisbane, Australia) and represent 3 distinct GBM subtypes: SB2b and PB1 (classical), JK2 (proneural) and WK1(mesenchymal), who supplied these directly for this study. GBM cell lines were cultured as adherent monolayers on matrigel (BD Biosciences)-coated flasks using StemPro NSC SFM serum free cell culture medium (Thermo Fisher Scientific) supplemented with 20 ng/ml EGF and 20 ng/ml FGFb, 1% D-glutamine and 1% of penicillin/ streptomycin (further referred as StemPro complete medium).
GBM cell lines were seeded at 38000 cells/well (SB2b) or 35,000 cells/well (PB1, JK2 and WK1) in 96-well matrigel-coated plates and incubated for 24 h at 37°C, 5% CO2 in humidified incubator in StemPro complete medium. Media was replaced with stimulation buffer (phenol red free F12 media, 0.1% BSA, 0.5 mM IBMX, pH 7.4). […] Cells were lysed (0.3% Tween 20, 5 mM Hepes, 0.1% BSA, pH 7.4) and 5 μl of cell lysate from each well was transferred to a corresponding well of 384-well optiplate. […] Data were analysed by three-parameter logistic curve and are presented as percentage of 10^− 5 M forskolin response.

SB2b cell line = experiment: Ca2+ mobilization, SB2b; format: cell-based, human; conditions: Fluo4-AM, FlexStation, 37 °C, pH 7.4, peak RFU, ATP 10 μM, ionomycin 1 μM, representative experiment, 3 replicates
Method: (§3) Primary patient high-grade glioma (HGG) cell lines, in vitro surrogates of glioblastoma, were developed by QIMR-Berghofer Medical Research Institute (Brisbane, Australia) and represent 3 distinct GBM subtypes: SB2b and PB1 (classical), JK2 (proneural) and WK1(mesenchymal) [37], who supplied these directly for this study. GBM cell lines were cultured as adherent monolayers on matrigel (BD Biosciences)-coated flasks using StemPro NSC SFM serum free cell culture medium (Thermo Fisher Scientific) supplemented with 20 ng/ml EGF and 20 ng/ml FGFb, 1% D-glutamine and 1% of penicillin/ streptomycin (further referred as StemPro complete medium).
(§4) GBM cell lines were seeded at 38000 cells/well (SB2b) or 35,000 cells/well (PB1 and WK1) in 96-well matrigel-coated plates and incubated for 24 h at 37 °C, 5% CO2 in humidified incubator in StemPro complete medium. […] Cells were incubated at 37°C for 60 min before ligand addition and detection of Ca^2+ mobilisation in a FlexStation 3 (Molecular Devices).

WK1 cell line [1] = experiment: Ca2+ mobilization, WK1; format: cell-based, human; conditions: Fluo4-AM, FlexStation, 37 °C, pH 7.4, peak RFU, ATP 10 μM, ionomycin 1 μM, representative experiment, 3 replicates
Method: as §3, §4

PB1 cell line [2] = experiment: Ca2+ mobilization, PB1; format: cell-based, human; conditions: Fluo4-AM, FlexStation, 37 °C, pH 7.4, peak RFU, ATP 10 μM, ionomycin 1 μM, representative experiment, 3 replicates
Method: as §3, §4

[3] = target: calcitonin receptor (human (endogenous in SB2b)) (UniProt P30988)
WK1 cell line [4] = experiment: cAMP accumulation, CTR agonists, WK1; format: cell-based, human; conditions: 1 μM forskolin
Method: as §1, with “medium). Cells were cultured in 5% CO2 / 95% humidified air at 37 °C.” for “medium).”
GBM cell lines were seeded at 38000 cells/well (SB2b) or 35,000 cells/well (PB1, JK2 and WK1) in 96-well matrigel-coated plates and incubated for 24 h at 37°C, 5% CO2 in humidified incubator in StemPro complete medium. Media was replaced with stimulation buffer (phenol red free F12 media, 0.1% BSA, 0.5 mM IBMX, pH 7.4). […] Intracellular cAMP levels in the wells were determined using Lance Ultra cAMP assay kit (Perkin Elmer) according to the manufacturer’s instructions and detected using an Envision multilabel 2103 reader. […] Data were analysed by three-parameter logistic curve and are presented as percentage of 10^− 5 M forskolin response.

[5] = target: CGRP (CLR/RAMP1) receptor (human (endogenous in PB1, JK2 and WK1)) (UniProt Q16602)
Chain of CGRP (CLR/RAMP1) receptor (human (endogenous in PB1, JK2 and WK1)) (Q16602 23-461, chain 1 of 2): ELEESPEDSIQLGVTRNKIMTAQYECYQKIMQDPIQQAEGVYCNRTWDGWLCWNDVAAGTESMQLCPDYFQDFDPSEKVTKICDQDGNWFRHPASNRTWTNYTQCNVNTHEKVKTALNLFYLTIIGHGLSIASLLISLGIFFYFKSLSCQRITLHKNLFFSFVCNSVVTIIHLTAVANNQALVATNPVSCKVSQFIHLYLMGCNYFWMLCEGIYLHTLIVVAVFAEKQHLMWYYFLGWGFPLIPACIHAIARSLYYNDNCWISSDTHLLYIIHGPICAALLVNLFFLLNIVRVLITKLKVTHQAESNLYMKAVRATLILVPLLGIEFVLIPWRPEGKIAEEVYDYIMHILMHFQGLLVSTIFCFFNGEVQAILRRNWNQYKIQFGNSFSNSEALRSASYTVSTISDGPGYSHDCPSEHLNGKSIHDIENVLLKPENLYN
Chain of CGRP (CLR/RAMP1) receptor (human (endogenous in PB1, JK2 and WK1)) (O60894 27-148, chain 2 of 2, further chain): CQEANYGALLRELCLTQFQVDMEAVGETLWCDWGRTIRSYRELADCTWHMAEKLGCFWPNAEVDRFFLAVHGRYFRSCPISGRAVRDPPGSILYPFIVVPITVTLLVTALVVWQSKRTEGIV

JK2 cell line = experiment: cAMP accumulation, CTR agonists, JK2; format: cell-based, human; conditions: 1 μM antagonist
Method: as §1, with “medium). Cells were cultured in 5% CO2 / 95% humidified air at 37 °C.” for “medium).”
(§2) GBM cell lines were seeded at 38000 cells/well (SB2b) or 35,000 cells/well (PB1, JK2 and WK1) in 96-well matrigel-coated plates and incubated for 24 h at 37°C, 5% CO2 in humidified incubator in StemPro complete medium. Media was replaced with stimulation buffer (phenol red free F12 media, 0.1% BSA, 0.5 mM IBMX, pH 7.4). […] Cells were lysed (0.3% Tween 20, 5 mM Hepes, 0.1% BSA, pH 7.4) and 5 μl of cell lysate from each well was transferred to a corresponding well of 384-well optiplate. Intracellular cAMP levels in the wells were determined using Lance Ultra cAMP assay kit (Perkin Elmer) according to the manufacturer’s instructions and detected using an Envision multilabel 2103 reader. Raw RFU values were converted using a cAMP standard curve to give absolute cAMP concentrations. Data were analysed by three-parameter logistic curve and are presented as percentage of 10^− 5 M forskolin response.

PB1 cell line [6] = experiment: cAMP accumulation, CTR agonists, PB1; format: cell-based, human; conditions: 1 μM antagonist
Method: as §1, with “medium). Cells were cultured in 5% CO2 / 95% humidified air at 37 °C.” for “medium).”
as §2

[7] = target: CGRP (CLR/RAMP1) receptor (human (endogenous in PB1, JK2 and WK1)) (UniProt Q16602); remark: listed apart in the source

Molecule: CC[C@H](C)[C@H](NC(=O)[C@H](C)NC(=O)[C@@H](NC(=O)[C@H](CCC(N)=O)NC(=O)[C@@H]1CCCN1C(=O)[C@H](Cc1ccccc1)NC(=O)[C@@H](NC(=O)[C@H](Cc1c[nH]cn1)NC(=O)[C@H](Cc1ccccc1)NC(=O)[C@H](CCCCN)NC(=O)[C@H](CC(N)=O)NC(=O)[C@H](Cc1ccccc1)NC(=O)[C@H](CC(=O)O)NC(=O)[C@H](CCC(N)=O)NC(=O)[C@@H](NC(=O)[C@H](Cc1ccc(O)cc1)NC(=O)[C@@H](NC(=O)CNC(=O)[C@H](CC(C)C)NC(=O)[C@H](CCSC)NC(=O)[C@@H]1CSSC[C@H](N)C(=O)NCC(=O)N[C@@H](CC(N)=O)C(=O)N[C@@H](CC(C)C)C(=O)N[C@@H](CO)C(=O)N[C@@H]([C@@H](C)O)C(=O)N1)[C@@H](C)O)[C@@H](C)O)[C@@H](C)O)[C@@H](C)O)C(=O)NCC(=O)N[C@H](C(=O)NCC(=O)N[C@@H](C)C(=O)N1CCC[C@H]1C(N)=O)C(C)C [hCT, Human CT]
- Emax (CTR in SB2b cell line): 43%

Molecule: Nc1ncnc2c1ncn2[C@@H]1O[C@H](COP(=O)(O)OP(=O)(O)OP(=O)(O)O)[C@@H](O)[C@H]1O [ATP]
- intracellular Ca2+ mobilisation response (SB2b cell line): robust response
- intracellular Ca2+ mobilisation response (WK1 cell line [1]): robust response
- intracellular Ca2+ mobilisation response (PB1 cell line [2]): robust response

- Emax of cAMP accumulation in SB2b cells (% of forskolin) [3]: 43
Molecule: human calcitonin (from UniProt P01258 85-116) (peptide)

Molecule: C=C[C@@]1(C)CC(=O)[C@]2(O)[C@@]3(C)[C@@H](O)CCC(C)(C)[C@@H]3[C@H](O)[C@H](OC(C)=O)[C@@]2(C)O1 [forskolin]
- increase of basal cAMP (WK1 cell line [4]): 4 fold

- Emax of cAMP accumulation in SB2b cells (% of forskolin) [3]: 35
- pEC50 of cAMP accumulation (30 min) in SB2b cells [3]: 9.4 pEC50
Molecule: salmon calcitonin (peptide)

Molecule: CC(C)C[C@H](NC(=O)[C@H](CCCCN)NC(=O)CNC(=O)[C@H](CC(C)C)NC(=O)[C@@H](NC(=O)[C@@H]1CSSC[C@H](N)C(=O)N[C@@H](CO)C(=O)N[C@@H](CC(N)=O)C(=O)N[C@@H](CC(C)C)C(=O)N[C@@H](CO)C(=O)N[C@@H]([C@@H](C)O)C(=O)N1)C(C)C)C(=O)N[C@@H](CO)C(=O)N[C@@H](CCC(N)=O)C(=O)N[C@@H](CCC(=O)O)C(=O)N[C@@H](CC(C)C)C(=O)N[C@@H](Cc1c[nH]cn1)C(=O)N[C@@H](CCCCN)C(=O)N[C@@H](CC(C)C)C(=O)N[C@@H](CCC(N)=O)C(=O)N[C@H](C(=O)N[C@@H](Cc1ccc(O)cc1)C(=O)N1CCC[C@H]1C(=O)N[C@@H](CCCNC(=N)N)C(=O)N[C@H](C(=O)N[C@@H](CC(N)=O)C(=O)N[C@H](C(=O)NCC(=O)N[C@@H](CO)C(=O)NCC(=O)N[C@H](C(=O)N1CCC[C@H]1C(N)=O)[C@@H](C)O)[C@@H](C)O)[C@@H](C)O)[C@@H](C)O [sCT, Salmon CT]
- Emax (CTR in SB2b cell line): 35%

- shift of the cAMP potency of αCGRP by 1 μM αCGRP(8–37) in PB1, JK2 and WK1 cells; blocks m4 + m8 [5]: 100 fold
Molecule: αCGRP(8–37) (peptide)

Molecule: C[C@H](CCC(=O)O)C[C@H](C)C[C@H](C)C(=O)/C=C(\O)[C@H](C)C[C@H](C)C/C=C/[C@@H](C)[C@@H](O)[C@@H](C)[C@@H](O)C[C@@H]1CC[C@@](C)([C@H]2CC[C@@](C)([C@@H](C)O)O2)O1 [ionomycin]
- intracellular Ca2+ mobilisation response (SB2b cell line): robust response
- intracellular Ca2+ mobilisation response (WK1 cell line [1]): robust response
- intracellular Ca2+ mobilisation response (PB1 cell line [2]): robust response

Molecule: αCGRP(8–37): CGRP receptor antagonist (VTHRLAGLLSRSGGVVKNNFVPTNVGSKAF; ends and bridges not checked; UniProt P06881 90-119, looked up, fragment)
- effect of antagonist on amylin cAMP response (JK2 cell line): abolishing this response
- effect of antagonist on amylin cAMP response (PB1 cell line [6]): abolishing this response

- pEC50 of cAMP accumulation (30 min) in JK2 cells [5]: 7 pEC50
- pEC50 of cAMP accumulation (30 min) in PB1 cells [5]: 7.3 pEC50
- pEC50 of cAMP accumulation (30 min) in WK1 cells [5]: 6.8 pEC50
- pEC50 of cAMP accumulation to AM alone, antagonist experiment, JK2 cells [5]: 7.2 pEC50
- pEC50 of cAMP accumulation to AM alone, antagonist experiment, PB1 cells [5]: 7.2 pEC50
- pEC50 of cAMP accumulation to AM alone, antagonist experiment, WK1 cells [5]: 6.9 pEC50
- pEC50 of cAMP accumulation to AM with 1 μM AM(22–52), JK2 cells [5]: 7.3 pEC50
- pEC50 of cAMP accumulation to AM with 1 μM AM(22–52), PB1 cells [5]: 7.1 pEC50
- pEC50 of cAMP accumulation to AM with 1 μM AM(22–52), WK1 cells [5]: 6.7 pEC50
B1: adrenomedullin (peptide)
peptide: YRQSMNNFQGLRSFGCRFGTCTVQKLAHQIYQFTDKDKDNVAPRSKISPQGY

- pEC50 of cAMP accumulation (30 min) in SB2b cells [3]: 6.8 pEC50
- pEC50 of cAMP accumulation (30 min) in JK2 cells [7]: 5.9 pEC50
- pEC50 of cAMP accumulation (30 min) in PB1 cells [7]: 6.1 pEC50
Molecule: KCNTATCATQRLANFLVRSSNNLGPVLPPTNVGSNTY [amylin (rAmy)]
